The results in this text go back to paper PMC5457524, “An engineered high affinity Fbs1 carbohydrate binding protein for selective capture of N-glycans and N-glycopeptides” (Nature Communications, 2017).

The labels stand for the following.
B2: SNAP-Fbs1 GYR variant (S155G, F173Y, E174R) (designed binder)
chain: CQQEGLVPEGGVEEERDHWQQFYFLSKRRRNLLRNPCGEEDLEGWCDVEHGGDGWRVEELPGDGGVEFTHDESVKKYFASSYRWCRKAQVIDLQAEGYWEELLDTTQPAIVVKDWYSGRSDAGCLYELTVKLLSEHENVLAEFSSGQVAVPQDSDGGGWMEISHTFTDYGPGVRFVRFEHGGQDSVYWKGWFGARVTNSSVWVEP
notes: numbered on the full-length human protein; source: E. coli, purified (for beads and N-glyco-FASP); E. coli cell lysate (fetuin bead pulldown); not shown: SNAP tag, N-terminal, kept

Test [1] concerns the target B2. In words: pull-down; wt, GYR or PPRYR SNAP-Fbs1 on BG beads; mixture of denatured fetuin and RNase B; low salt (50 mM ammonium acetate pH 7.5 named for Fig. 4a); 4 °C, 1 h; SDS-PAGE. The note with it: both partners purified.
The target in the next test is T1, fetuin (UniProt P12763 19-359, sialylated complex N-linked glycans).
T1 construct: fetuin; Denatured by boiling in Rapid PNGase F buffer, or on Affi-Gel 15 beads with 6 M guanidine-HCl; also called sialylated fetuin; fetuin beads; source: bought: New England Biolabs; denatured before the assay
T1 sequence (looked up): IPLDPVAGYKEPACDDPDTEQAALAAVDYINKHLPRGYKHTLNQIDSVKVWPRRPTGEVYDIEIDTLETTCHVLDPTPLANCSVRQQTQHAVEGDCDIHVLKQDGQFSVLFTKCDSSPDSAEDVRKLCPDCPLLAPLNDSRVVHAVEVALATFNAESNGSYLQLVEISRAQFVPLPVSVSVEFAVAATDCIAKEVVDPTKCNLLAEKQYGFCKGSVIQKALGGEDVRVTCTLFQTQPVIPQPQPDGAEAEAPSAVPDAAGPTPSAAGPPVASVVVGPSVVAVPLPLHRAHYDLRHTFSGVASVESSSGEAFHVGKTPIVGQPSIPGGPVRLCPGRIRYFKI
In words: pull-down; fetuin (Affi-Gel 15) or RNase B (Affi-Gel 10) beads, denatured with 6 M guanidine-HCl; E. coli cell lysate with wt or mutant SNAP-Fbs1; 20 mM Tris.HCl pH 7.5, 1 mM EDTA, 50 mM NaCl (low salt) or 2 M NaCl (high salt), 30% Protein-Free Blocking buffer; 4 °C, 1 h; SDS-PAGE, ImageJ. The note with it: one partner purified.

Test [2] deals with B2. The experiment in a line: pull-down; wt or GYR SNAP-Fbs1 on BG beads; TMR-labelled glycopeptides; 4 °C, 1 h; bound amount from the TMR fluorescence left in the supernatant, given as recovery percentage; low salt (50 mM NaCl or 50 mM ammonium acetate pH 7.5) or high salt (2 M NaCl). Conditions: both partners purified.
In test [3] the target is T2, SNAP-Fbs1 fusion protein (wild-type human Fbs1 sugar-binding domain, residues 92-296) (human, UniProt Q9UK22 92-296).
T2 construct: Immobilised covalently through the SNAP tag on benzylguanine (BG) agarose beads in the bead assays; also called wt Fbs1; Fbs1 beads; source: NEB Express E. coli, purified (for Fbs1 beads and ITC); E. coli cell lysate (fetuin or RNase B bead pulldown); not shown: SNAP tag, N-terminal, kept
T2 sequence (looked up): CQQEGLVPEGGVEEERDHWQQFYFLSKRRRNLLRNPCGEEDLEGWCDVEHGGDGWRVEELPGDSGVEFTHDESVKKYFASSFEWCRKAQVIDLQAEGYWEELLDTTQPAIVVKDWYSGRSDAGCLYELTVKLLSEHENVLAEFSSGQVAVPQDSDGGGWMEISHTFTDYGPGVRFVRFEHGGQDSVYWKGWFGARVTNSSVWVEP
The description is as above. Conditions: both partners purified.

The target in test [4] is T2, SNAP-Fbs1 fusion protein (wild-type …). The experiment in a line: ITC; 270 μM SGP injected into 27 μM SNAP-Fbs1; 20 mM Tris.HCl pH 7.5, 1 mM EDTA, 2 M NaCl (high salt); single site binding model. Conditions: both partners purified.
The target is the same in test [5]. The experiment in a line: ITC; 270 μM SGP injected into 27 μM SNAP-Fbs1; 20 mM Tris.HCl pH 7.5, 1 mM EDTA, 50 mM NaCl (low salt); single site binding model. The note with it: both partners purified.
Test [6] has as its target B2. In words: affinity purification with mass spectrometry; wt Fbs1 or Fbs1 GYR enrichment from a tryptic digest of RNase B spiked with SGP and SGP-TMR; low salt (50 mM ammonium acetate, pH7.5); LC-MS, SGP-TMR by fluorescence. Conditions: both partners purified.

No end group written: not given here. TMR = tetramethylrhodamine

B1: RNase B (natural protein, UniProt P61823 27-150, looked up)
chain: KETAAAKFERQHMDSSTSAASSSNYCNQMMKSRNLTKDRCKPVNTFVHESLADVQAVCSQKNVACKNGQTNCYQSYSTMSITDCRETGSSKYPNCAYKTTQANKHIIVACEGNPYVPVHFDASV
modifications: a single site modified by a variety of high-mannose N-glycans
notes: RNase B, the N-glycosylated form of pancreatic ribonuclease; Denatured by boiling (SDS/DTT or Rapid PNGase F buffer), or on Affi-Gel 10 beads with 6 M guanidine-HCl; source: bought: New England Biolabs; denatured before the assay
As for B1, the binding result in test [1] is given as “binds”.

As for B2, the “fold change of the pulled-down amount against wt Fbs1” value (from here on “fold change of the pulled-down amount”) with fetuin was at least 3.5 fold.

B3: SNAP-Fbs1 PPRYR variant (combination of PPR and YR) (designed binder)
chain: CQQEGLVPEGGVEEERDHWQQFYFLSKRRRNLLRNPCGEEDLEGWCDVEHGGDGWRVEELPGPPRVEFTHDESVKKYFASSYRWCRKAQVIDLQAEGYWEELLDTTQPAIVVKDWYSGRSDAGCLYELTVKLLSEHENVLAEFSSGQVAVPQDSDGGGWMEISHTFTDYGPGVRFVRFEHGGQDSVYWKGWFGARVTNSSVWVEP
notes: numbered on the full-length human protein; source: E. coli, purified (for beads); E. coli cell lysate (fetuin bead pulldown); not shown: SNAP tag, N-terminal, kept
In the case of B3, the “fold change of the pulled-down amount” value with fetuin is at least 3.5 fold.

B4: SNAP-Fbs1 S155G mutant (domain or fragment, human, UniProt Q9UK22 92-296, looked up)
chain: CQQEGLVPEGGVEEERDHWQQFYFLSKRRRNLLRNPCGEEDLEGWCDVEHGGDGWRVEELPGDGGVEFTHDESVKKYFASSFEWCRKAQVIDLQAEGYWEELLDTTQPAIVVKDWYSGRSDAGCLYELTVKLLSEHENVLAEFSSGQVAVPQDSDGGGWMEISHTFTDYGPGVRFVRFEHGGQDSVYWKGWFGARVTNSSVWVEP
notes: numbered on the full-length human protein; source: E. coli cell lysate; not shown: SNAP tag, N-terminal, kept
In the case of B4, the “fold change of the pulled-down amount” value in the test with fetuin turned out to be 2 fold.

B5: SNAP-Fbs1 S155A mutant (domain or fragment, human, UniProt Q9UK22 92-296, looked up)
chain: CQQEGLVPEGGVEEERDHWQQFYFLSKRRRNLLRNPCGEEDLEGWCDVEHGGDGWRVEELPGDAGVEFTHDESVKKYFASSFEWCRKAQVIDLQAEGYWEELLDTTQPAIVVKDWYSGRSDAGCLYELTVKLLSEHENVLAEFSSGQVAVPQDSDGGGWMEISHTFTDYGPGVRFVRFEHGGQDSVYWKGWFGARVTNSSVWVEP
notes: as for B4
In the case of B5, the “fold change of the pulled-down amount” value with fetuin was 1.5 fold.

B6: SGP-TMR without sialic acids and galactose (peptide)
peptide: K(TMR)VANK(TMR)T
modifications: not fully specified (residue 4)
notes: peptide of SGP; also called glycopeptide 3; source: SGP-TMR trimmed with α2-3,6,8 Neuraminidase and β1-4 Galactosidase S
On to B6, for which the binding result in test [2] is recorded as “binds”.

B7: SGP-TMR without sialic acids, galactose and GlcNAc (peptide)
peptide: K(TMR)VAN(N‑glycan pentasaccharide core)K(TMR)T
notes: peptide of SGP; also called glycopeptide 4; source: SGP-TMR trimmed with α2-3,6,8 Neuraminidase, β1-4 Galactosidase S and β-N-Acetylglucosaminidase S
B7: the “fold improvement in recovery (against untrimmed SGP-TMR)” value in test [3] was at least 3 fold. Also, the binding result in test [2] is “binds”.

B8: SGP-TMR (SGP labelled with two TMR fluorophores on the lysines) (peptide)
peptide: K(TMR)VAN(bi‑antennary complex N‑glycan, terminal sialic acids)K(TMR)T
notes: peptide of SGP; also called glycopeptide 1
B8: in test [2], the binding result is recorded as “binds”.

B9: sialylglycopeptide (SGP) (peptide)
peptide: KVAN(bi‑antennary complex N‑glycan, terminal sialic acids)KT
notes: naturally occurring glycopeptide of six amino acids; source: bought: Fushimi Pharmaceutical Co., Ltd
With B9, the Kd was found to be 1400 ± 40 nM in test [4] and 3000 nM in test [5]. Also, in test [6], the binding result is “binds”.
